In patent US20180142032A1 (Sanofi, published 2018):

Target: T1, cLAMP1::histag (cynomolgus monkey, UniProt P11279 29-380 (human entry))
T1 construct: extracellular domain with C-terminal tag that includes 6 His; also called cynomolgus LAMP1 (27-380); cynomolgus monkey LAMP1 protein
T1 chain: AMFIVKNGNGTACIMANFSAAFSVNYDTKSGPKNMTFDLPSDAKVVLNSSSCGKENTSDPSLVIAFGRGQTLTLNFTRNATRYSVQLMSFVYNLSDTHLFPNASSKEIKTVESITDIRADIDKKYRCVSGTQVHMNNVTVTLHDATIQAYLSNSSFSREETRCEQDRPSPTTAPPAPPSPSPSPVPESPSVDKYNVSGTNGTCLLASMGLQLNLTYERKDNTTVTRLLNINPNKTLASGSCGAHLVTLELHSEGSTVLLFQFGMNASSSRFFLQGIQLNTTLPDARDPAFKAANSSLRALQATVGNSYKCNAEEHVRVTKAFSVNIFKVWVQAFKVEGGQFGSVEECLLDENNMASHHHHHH
Test: ELISA on coated recombinant LAMP1 extracellular domain, detected with anti-mouse IgG-HRP; antibody concentration not given
Text: The antibody binding was visualized by adding TMB-H₂O₂ buffer and read at a wavelength of 450 nm.

binding result: binds
B1: MAb1 (antibody, mouse IgG2a, kappa)
heavy: QVQLQQSGAELVKPGASVKMSCKASGYIFTNYNIHWVKKSPGQGLEWIGAIYPGNGDAPYSQKFKDKATLTADKSSSTTYMQLSRLTSEDSAVYYCVRANWDVAFAYWGQGTLVSVSAAKTTAPSVYPLAPVCGDTTGSSVTLGCLVKGYFPEPVTLTWNSGSLSSGVHTFPAVLQSDLYTLSSSVTVTSSTWPSQSITCNVAHPASSTKVDKKIEPRGPTIKPCPPCKCPAPNLLGGPSVFIFPPKIKDVLMISLSPIVTCVVVDVSEDDPDVQISWFVNNVEVHTAQTQTHREDYNSTLRVVSALPIQHQDWMSGKEFKCKVNNKDLPAPIERTISKPKGSVRAPQVYVLPPPEEEMTKKQVTLTCMVTDFMPEDIYVEWTNNGKTELNYKNTEPVLDSDGSYFMYSKLRVEKKNWVERNSYSCSVVHEGLHNHHTTKSFSRTPGK
light: DIQMTQSPPSLSASLGGKVTITCKASQDIDRYMAWYQDKPGKGPRLLIHDTSTLQPGIPSRFSGSGSGRDYSFSISNLEPEDIATYYCLQYDNLWTFGGGTKLEIKRADAAPTVSIFPPSSEQLTSGGASVVCFLNNFYPKDINVKWKIDGSERQNGVLNSWTDQDSKDSTYSMSSTLTLTKDEYERHNSYTCEATHKTSTSPIVKSFNRNEC
notes: murine monoclonal IgG, kappa, from hybridoma; also called murine MAb1
